According to paper doi:10.1101/2025.11.13.688182:

Target: RAD51 full-length [F86E, A89E], co-expressed with BRC repeats (human) (UniProt Q06609)
Experiment: SEC-SAXS

UniProt Q06609, sequence (Q06609 whole entry F86E/A89E): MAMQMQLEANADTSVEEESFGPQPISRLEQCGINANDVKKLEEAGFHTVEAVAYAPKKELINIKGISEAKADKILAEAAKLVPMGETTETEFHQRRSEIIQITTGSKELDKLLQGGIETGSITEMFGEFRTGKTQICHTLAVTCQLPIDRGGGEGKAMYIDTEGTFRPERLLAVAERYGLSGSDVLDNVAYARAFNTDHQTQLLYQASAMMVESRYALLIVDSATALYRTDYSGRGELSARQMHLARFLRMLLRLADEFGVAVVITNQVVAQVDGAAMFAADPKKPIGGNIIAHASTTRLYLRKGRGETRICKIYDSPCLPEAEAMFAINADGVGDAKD

Substance	stoichiometry, BRC repeats to RAD51 (RAD51 per BRC repeat)
BRCA2 truncation BRC2-4 (from UniProt P51587 1-3418) (domain or fragment)	1
BRCA2 truncation BRC3-4 (from UniProt P51587 1-3418) (domain or fragment)	1
BRCA2 truncation BRC1-4 (from UniProt P51587 1-3418) (domain or fragment)	1
BRCA2 truncation BRC2-3 (from UniProt P51587 1-3418) (domain or fragment)	1
BRCA2 truncation BRC1-2 (from UniProt P51587 1-3418) (domain or fragment)	1
